Results: paper PMC5727232, “Structural basis for genome wide recognition of 5-bp GC motifs by SMAD transcription factors”

Legend:
[1] = molecular target: T1, Trichoplax Smad4 MH1 domain (Trichoplax adhaerens, UniProt B3S7S5 1-151); assay: EMSA; EMSA: 20 mM Tris pH 7.2, 80 mM NaCl, 2 mM DTT, 7.5 nM Cy5-DNA, 30 min room temperature, gel at 20 C; ITC: Tris pH 7.0, 20 C; conditions: protein: recombinant; tags: N-terminal His-TEV, cleaved; label: 5' Cy5; blunt
T1 sequence: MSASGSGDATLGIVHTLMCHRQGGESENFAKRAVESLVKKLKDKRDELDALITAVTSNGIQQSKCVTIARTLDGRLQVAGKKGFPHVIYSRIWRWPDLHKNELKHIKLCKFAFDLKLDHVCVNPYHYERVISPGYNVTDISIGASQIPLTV

Smad3 MH1 domain [2] = molecular target: T2, Smad3 MH1 domain (Homo sapiens, UniProt P84022 1-141); assay: EMSA; text says GC1 oligonucleotide; EMSA: 20 mM Tris pH 7.2, 80 mM NaCl, 2 mM DTT, 7.5 nM Cy5-DNA, 30 min room temperature, gel at 20 C; ITC: Tris pH 7.0, 20 C; conditions: protein: recombinant; tags: N-terminal His-TEV, cleaved; label: 5' Cy5; blunt
T2 sequence (P84022 1-141): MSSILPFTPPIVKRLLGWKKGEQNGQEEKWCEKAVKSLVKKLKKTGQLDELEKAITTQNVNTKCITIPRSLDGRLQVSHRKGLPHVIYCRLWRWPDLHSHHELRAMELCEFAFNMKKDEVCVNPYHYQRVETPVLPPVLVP

Smad4 MH1 domain [3] = molecular target: T3, Smad4 MH1 domain (Homo sapiens, UniProt Q13485 10-140); assay: ITC; EMSA: 20 mM Tris pH 7.2, 80 mM NaCl, 2 mM DTT, 7.5 nM Cy5-DNA, 30 min room temperature, gel at 20 C; ITC: Tris pH 7.0, 20 C; conditions: protein: recombinant, tags: N-terminal His, cleaved (TEV or 3C), blunt
T3 sequence (Q13485 10-140): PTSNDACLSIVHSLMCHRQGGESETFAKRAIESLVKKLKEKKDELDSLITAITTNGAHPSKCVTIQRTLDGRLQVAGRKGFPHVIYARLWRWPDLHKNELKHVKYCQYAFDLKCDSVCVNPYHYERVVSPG

Smad4 MH1 domain [4] = molecular target: T3, Smad4 MH1 domain; assay: EMSA; EMSA: 20 mM Tris pH 7.2, 80 mM NaCl, 2 mM DTT, 7.5 nM Cy5-DNA, 30 min room temperature, gel at 20 C; ITC: Tris pH 7.0, 20 C; conditions: protein: recombinant; tags: N-terminal His, cleaved (TEV or 3C); label: 5' Cy5; blunt
Smad3 MH1 domain [5] = molecular target: T2, Smad3 MH1 domain; assay: as above; conditions: protein: recombinant; tags: N-terminal His-TEV, cleaved; label: 5' Cy5; blunt
Smad4 MH1 domain [6] = molecular target: T3, Smad4 MH1 domain; assay: NMR; pH 6.3, 100 mM NaCl, 298 K; EMSA: 20 mM Tris pH 7.2, 80 mM NaCl, 2 mM DTT, 7.5 nM Cy5-DNA, 30 min room temperature, gel at 20 C; ITC: Tris pH 7.0, 20 C; conditions: protein: recombinant; tags: N-terminal His, cleaved (TEV or 3C); blunt
Smad4 MH1 domain [7] = molecular target: T3, Smad4 MH1 domain; assay: X-ray crystallography (2.05 A); Zn2+; EMSA: 20 mM Tris pH 7.2, 80 mM NaCl, 2 mM DTT, 7.5 nM Cy5-DNA, 30 min room temperature, gel at 20 C; ITC: Tris pH 7.0, 20 C; conditions: protein: recombinant; tags: N-terminal His, cleaved (TEV or 3C); blunt, self-complementary
Smad4 MH1 domain [8] = molecular target: T3, Smad4 MH1 domain; assay: X-ray crystallography (3.03 A); Zn2+; EMSA: 20 mM Tris pH 7.2, 80 mM NaCl, 2 mM DTT, 7.5 nM Cy5-DNA, 30 min room temperature, gel at 20 C; ITC: Tris pH 7.0, 20 C; conditions: protein: recombinant; tags: N-terminal His, cleaved (TEV or 3C); blunt, self-complementary
Smad4 MH1 domain [9] = molecular target: T3, Smad4 MH1 domain; assay: EMSA; no nanomolar binding; EMSA: 20 mM Tris pH 7.2, 80 mM NaCl, 2 mM DTT, 7.5 nM Cy5-DNA, 30 min room temperature, gel at 20 C; ITC: Tris pH 7.0, 20 C; conditions: protein: recombinant; tags: N-terminal His, cleaved (TEV or 3C); label: 5' Cy5; blunt
Smad4 MH1 domain [10] = molecular target: T3, Smad4 MH1 domain; assay: NMR; 1 equivalent DNA; pH 6.3, 100 mM NaCl, 298 K; EMSA: 20 mM Tris pH 7.2, 80 mM NaCl, 2 mM DTT, 7.5 nM Cy5-DNA, 30 min room temperature, gel at 20 C; ITC: Tris pH 7.0, 20 C; conditions: protein: recombinant; tags: N-terminal His, cleaved (TEV or 3C); blunt

B1: GC1 core (dsDNA)
DNA 1: TTAAGGCCGGGGCCGCGCCGGGAATT
DNA 2: AATTCCCGGCGCGGCCCCGGCCTTAA
binding result [1]: binds
Kd (Smad3 MH1 domain [2]): ~100 nM

B2: GGCT 16mer (dsDNA)
DNA 1: TGCAGGCTAGCCTGCA
DNA 2: TGCAGGCTAGCCTGCA
Kd (Smad4 MH1 domain [3]; self-complementary): 250.5 ± 0.8 nM

B3: -GGCTGCC- (dsDNA)
DNA 1: GTAACCGGCTGCCGAATG
DNA 2: CATTCGGCAGCCGGTTAC
binding result (Smad4 MH1 domain [4]): binds
binding result (Smad3 MH1 domain [5]): binds

B4: NMR GGCTGCC duplex (dsDNA)
DNA 1: AGCCGGCTGCC
DNA 2: GGCAGCCGGCT
binding result (Smad4 MH1 domain [6]): binds

B5: GGCGC-XRAY-Smad4 18mer (dsDNA)
DNA 1: ATGCGGGCGCGCCCGCAT
DNA 2: ATGCGGGCGCGCCCGCAT
binding result (Smad4 MH1 domain [7]): binds

B6: GGCCG-XRAY (dsDNA)
DNA 1: ACGGGCCGCGGCCCGT
DNA 2: ACGGGCCGCGGCCCGT
binding result (Smad4 MH1 domain [8]): binds

B7: FoxH1 site (dsDNA)
DNA 1: TCTCAATCCACAATC
DNA 2: GATTGTGGATTGAGA
binding result (Smad4 MH1 domain [9]): no binding

B8: -GGCCGC- (dsDNA)
DNA 1: ATTAGGCCGCAAAAAAAGCA
DNA 2: TGCTTTTTTTGCGGCCTAAT
binding result (Smad4 MH1 domain [4]): binds

B9: GC2_14 (CCTGGGC) (dsDNA)
DNA 1: AACCTGGGCAATTA
DNA 2: TAATTGCCCAGGTT
binding result (Smad4 MH1 domain [9]): no binding

B10: -GGCCGG- (dsDNA)
DNA 1: ATTATTGGCCGGAAAGCA
DNA 2: TGCTTTCCGGCCAATAAT
binding result (Smad4 MH1 domain [4]): binds

B11: NMR GGCCGCGCC duplex (dsDNA)
DNA 1: AGGCCGCGCCGA
DNA 2: TCGGCGCGGCCT
binding result (Smad4 MH1 domain [10]): binds

B12: SBE / GTCT (dsDNA)
DNA 1: TGCAGTCTAGACTGCA
DNA 2: TGCAGTCTAGACTGCA
Kd (Smad4 MH1 domain [3]; label: 5' Cy5 in EMSA, self-complementary): 200.3 ± 0.5 nM

B13: CAGAC (ITC) (dsDNA)
DNA 1: AGTCAGACGCT
DNA 2: AGCGTCTGACT
Kd (Smad4 MH1 domain [3]): 270.5 ± 0.1 nM
